Test [1] has as its target T1, B7-H4 fusion protein Variant 5: IgC residues 154-259 of SEQ ID NO:1 (human, UniProt Q7Z7D3 154-259).
T1 construct: Human IgG1 Fc fusion protein; also called IgC only; not shown: human IgG1 Fc
T1 sequence: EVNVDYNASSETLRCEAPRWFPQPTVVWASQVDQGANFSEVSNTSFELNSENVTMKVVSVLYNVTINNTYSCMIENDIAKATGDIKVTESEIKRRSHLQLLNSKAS
The test is described as follows: ELISA, B7-H4 Fc fusion protein immobilized at 1 µg/ml, mouse antibody titrated, anti-mouse Ig HRP. As for the experimental part: (§1) 100 μl 1 μg/ml human IgG1 Fc fusion proteins diluted in PBS consisting of different segments of B7-H4 Extracellular domains were immobilized on flat bottom 96 well plates (Costar 9017) overnight at 4° C. […] Plates were washed twice with PBS+0.1% PS-20 and blocked with 200 μl/well PBS 10% FBS at RT for 1 hr. A titration of mouse anti-human B7-H4 antibodies 2H9, 2D1, 2E11, 6H3, 8E11 or H74 diluted in PBS 10% FBS were added to the plates and incubated at RT for 1 hr. Plates were washed three times and 100 μl 1 μg/ml anti-mouse Ig HRP (Sigma) was added to each well and incubated at RT for 1 hr. Plates were washed six times and 100 μl TMB substrate (SurModics) was added to each well for 5-15 mins. 100 μl stop solution (0.1M Sulfuric acid) was added to each well. Plates were read at Absorbance 450 nm by PerkinElmer EnVision 2104 Multilabel Reader.
Background: ELISA stands for enzyme-linked immunosorbent assay.

The target in test [2] is T2, B7-H4-Ig fusion protein (human).
T2 construct: also called human B7-H4 Ig
T2 sequence (chain, as listed by the source limits assumed): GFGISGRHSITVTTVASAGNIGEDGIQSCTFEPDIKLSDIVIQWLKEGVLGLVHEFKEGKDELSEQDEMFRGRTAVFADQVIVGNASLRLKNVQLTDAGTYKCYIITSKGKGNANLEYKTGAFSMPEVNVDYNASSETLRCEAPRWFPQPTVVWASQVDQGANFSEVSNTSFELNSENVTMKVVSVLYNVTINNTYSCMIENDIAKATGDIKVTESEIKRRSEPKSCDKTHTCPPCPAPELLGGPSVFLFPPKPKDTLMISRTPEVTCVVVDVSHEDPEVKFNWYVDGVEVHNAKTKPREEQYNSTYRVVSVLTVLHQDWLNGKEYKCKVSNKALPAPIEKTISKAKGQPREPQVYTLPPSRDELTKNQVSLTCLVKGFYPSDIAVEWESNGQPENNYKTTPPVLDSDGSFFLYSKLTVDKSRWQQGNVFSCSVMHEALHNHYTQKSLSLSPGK
Nature of the test: ELISA, B7-H4 Ig coated on the plate, purified antibody, HRP goat anti-mouse. How it is done: B7-H4 Ig was coated onto microtiter plates, washed, blocked, and washed again. Varying concentrations of anti-B7-H4 antibodies were allowed to bind. Purified proteins were used for clones H74, 6H3, and 8E11. Conditioned media from hybridomas 2D1, 2H9, and 2E11 were used. Following incubation, the plates were washed. Bound anti-B7-H4 was detected using HRP-conjugated goat anti-mouse (Jackson ImmunoResearch).

For test [3], the target named is T3, B7-H4 fusion protein Variant 3: IgV residues 29-158 of SEQ ID NO:1 (human, UniProt Q7Z7D3 29-158).
T3 construct: Human IgG1 Fc fusion protein; also called IgV only; not shown: human IgG1 Fc
T3 chain: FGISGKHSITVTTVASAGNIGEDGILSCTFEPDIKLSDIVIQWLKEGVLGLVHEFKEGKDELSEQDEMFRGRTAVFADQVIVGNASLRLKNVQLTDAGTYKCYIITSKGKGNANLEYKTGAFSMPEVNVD
The test is described as follows: ELISA, B7-H4 Fc fusion protein immobilized at 1 µg/ml, mouse antibody titrated, anti-mouse Ig HRP. How it is done:
as §1

The target of test [4] is T4, B7-H4 fusion protein Variant 1: IgV residues 29-149 of SEQ ID NO:1 (human, UniProt Q7Z7D3 29-149).
T4 construct: Human IgG1 Fc fusion protein; also called IgV only; not shown: human IgG1 Fc
T4 chain: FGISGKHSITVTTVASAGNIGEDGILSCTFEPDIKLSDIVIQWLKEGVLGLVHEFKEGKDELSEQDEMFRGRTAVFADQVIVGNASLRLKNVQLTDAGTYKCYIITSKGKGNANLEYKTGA
The description is as above. How it is done:
as §1

Test [5] deals with T5, B7-H4 fusion protein Variant 2: IgV residues 29-154 of SEQ ID NO:1 (human, UniProt Q7Z7D3 29-154).
T5 construct: Human IgG1 Fc fusion protein; also called IgV only; not shown: human IgG1 Fc
T5 chain: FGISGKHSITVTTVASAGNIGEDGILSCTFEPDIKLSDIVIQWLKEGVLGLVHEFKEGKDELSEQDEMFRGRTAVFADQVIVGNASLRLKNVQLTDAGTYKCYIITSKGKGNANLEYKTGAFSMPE
The description is as above. As for the experimental part:
as §1

The target in test [6] is T6, human B7-H4 expressed on cells (human, UniProt Q7Z7D3 25-282).
T6 construct: the cell line is named under assay or readout; also called full length human B7-H4 on HEK293 cells; 293T.hB7-H4
T6 sequence: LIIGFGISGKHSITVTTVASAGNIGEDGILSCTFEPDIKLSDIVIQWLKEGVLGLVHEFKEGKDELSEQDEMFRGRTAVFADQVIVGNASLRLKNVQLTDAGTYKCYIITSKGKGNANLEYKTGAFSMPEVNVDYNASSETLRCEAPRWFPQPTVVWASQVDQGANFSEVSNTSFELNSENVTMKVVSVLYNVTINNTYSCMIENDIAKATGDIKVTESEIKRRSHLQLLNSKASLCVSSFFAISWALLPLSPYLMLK
Nature of the test: flow cytometry on HEK293 cells expressing full length human B7-H4, labelled secondary antibody, 20 min at 4 C. As for the experimental part:
In order to determine the kinetics of binding of antibody 6H3 binding to B7-H4, with HEK293 cells that expressed full length human B7-H4 were incubated (for 20 minutes at 4° C. with 1×10⁵ in 200 μl wells) in the presence of varying concentrations of antibody (0, 0.01 ng, 0.03 ng, 0.1 ng, 0.3 ng, 1 ng, 10 ng, 30 ng, 100 ng, 300 ng, 1000 ng, 3000 ng, 10000 ng, or 30000 ng) in RPMI complete media (10% FBS). Binding was analyzed (FACS Canto II) using a FACS staining plate after incubation with a secondary antibody (anti-human Ig PE, anti-mouse Ig APC, anti-hamster Ig PE or anti-rat Ig PE).

Test [7] has as its target T2, B7-H4-Ig fusion protein. Nature of the test: antibody captured on B7-H4-Ig fusion protein, detected with biotin-anti-mouse IgG1 and Europium-Streptavidin. The text has this: Serum was collected for initial evaluation of PK (peak and trough post 4th dose). Antibody was captured from serum with a B7-H4-Ig fusion protein, and detected with biotin-anti-mouse IgG1 (6H3.mIgG1) or IgG2a (6H3.mIgG2a) and detected with Europium-Streptavidin.

B1: anti-human B7-H4 antibody 2D1 (antibody, V domains shown)
VH: EVQLVESGGGLVKPGGSLKLSCAASGFTFNSHGMSWVRQTPEKRLDWVATISDGGTYTYYPVNVKGRFTISRDNAKNNLYLQMSHLKSEDTAMYYCARDGGGGAYWGQGTLVTVSA
VL: DVVMTQTPLSLPVSLGDQASISCRSSHSLVHSNGNTYLHWYLQKPGQSPNLLIYIVSNRFSGVPDRFSGSGSGTDFTLKISRVEAEDLGVYFCSQSTHVPPTFGAGTKLELK
notes: Mouse anti-human B7-H4 antibody; also called clone 2D1
For B1, the binding result in test [1] was “binds”.

B2: murine anti-human B7-H4 antibody 6H3 (antibody, V domains shown)
VH: EVQLQQSGPVLVKPGTSVKMSCKASGYTFTDYYMNWVKQSHGKSLEWIGVINPYNGDTTYNQKFKGKATLTVDKSSSTAYMEVNSLTFEDSAVYYCARYPESTYWGQGTLVTVSA
VL: DVVMTQTPLSLPVSLGDQASISCRSSQSLVHINGNTYLHWYLQKPGQSPKVLIYKVSNRFSGVPDRFSGSGSGTDFTLKISRVEAEDLGVYFCSQSTHVPLTFGAGTKLELK
notes: Mouse monoclonal antibody; also called clone 6H3; mouse anti-human B7-H4 6H3
The EC50 (read off the curve) is the midpoint of the concentration-response curve. Read a high EC50 (read off the curve) as lower potency in that assay. As to B2, the results for the half-maximal effective concentration (EC50 (read off the curve)) (with B7-H4-Ig fusion protein [2]; in test [6]) were about 10 ng/mL and about 6 nM, respectively. The binding result in test [3], in test [4] and in test [5] was “no binding (tested: 16 ng/ml)” in each case.

B3: mouse 6H3.m1 (mouse IgG1) (antibody, V domains shown)
VH: EVQLQQSGPVLVKPGTSVKMSCKASGYTFTDYYMNWVKQSHGKSLEWIGVINPYNGDTTYNQKFKGKATLTVDKSSSTAYMEVNSLTFEDSAVYYCARYPESTYWGQGTLVTVSA
VL: DVVMTQTPLSLPVSLGDQASISCRSSQSLVHINGNTYLHWYLQKPGQSPKVLIYKVSNRFSGVPDRFSGSGSGTDFTLKISRVEAEDLGVYFCSQSTHVPLTFGAGTKLELK
notes: 6H3 as mouse IgG1; also called 6H3.mIgG1
Consider B3, for which the concentration giving a half-maximal response (EC50 (read off the curve)) in the test with B7-H4-Ig fusion protein [7] was about 10 ng/mL.
